Experimental data published in patent US20090215686A1 (published 2009).

Assays:
[1] = target: T1, Met extracellular domain fragment (residues 25-567, sema domain and cysteine-rich domain) with C-terminal … (UniProt P08581 25-307; P08581 308-567); experiment: AlphaScreen competition of unlabeled ligand against biotin-NK1 binding to 6his-Met, 1 uM heparin
T1 construct: also called 6his-Met; Met sema domain
Description: (§1) The binding of NK1 to Met was determined by AlphaScreen assays using a hexahistidine detection kit from Perkin-Elmer. The experiment was performed using 10 nM biotin-NK1 and 6his-Met in the presence of 5 μg/ml donor and acceptor beads in a buffer containing 50 mM MOPS, pH7.4, 50 mM NaF, 0.05 mM CHAPS, and 0.1 mg/ml bovine serum albumin. Competition experiments were performed with 0.01 to 2.5 μM untagged ligand in the presence of 1 μM heparin and IC₅₀ values for NK1-Met interaction were determined from a nonlinear least square fit of the data. All experiments were duplicated or triplicated with standard errors typically less than 10% of the measurements. The Met dimerization assays were prepared using 40 nM of 6his-Met in the presence of 5 μg/ml nickel chelate donor and acceptor beads (Perkin-Elmer). The effect of Met ligands and heparin on Met dimerization was determined using 1 μM untagged ligand and 1 μM heparin.
To determine the binding affinities of the various NK1s for Met, competition experiments were performed using unlabeled NK1 proteins (FIG. 1E). […] These quantitative measurements thus establish that the affinities of the NK1 fragments are 10-50 folds weaker than the full-length HGF.

[2] = target: T1, Met extracellular domain fragment …; experiment: cell-based or functional assay
[3] = target: the molecule itself; experiment: crystal structure of mouse NK1
Description: Data were collected with a MAR 225 CCD detector at 5-ID (DND-CAT) of the Advance Photon Source (APS) located at Argonne National Laboratory. Crystals were flash frozen in liquid nitrogen after a quick wash in cryoprotectant solution containing 50 mM ammonium sulfate, 29% PEG 4000 or 1000 (w/w) (human or mouse NK1 respectively), 100 mM Tris-HCl pH 8.0, 0.5 or 0 mM βOG, 100 mM NaCl, and 15% ethylene glycol. Data was integrated and scaled with HKL2000 (Otwinowski and Minor, 1997). The human NK1 crystallized in space group P21, a=49.40 Å, b=51.81 Å, c=73.17 Å, and β=107.87°, and the mouse NK1 in P63 with a=b=86.49 Å, c=104.45 Å. The structure was solved by molecular replacement using the PDB coordinates 1NK1. Molecular replacement and model refinement were performed with CNS, where twin fraction was incorporated for the refinement for the mouse structure (Brunger et al., 1998). Manual model building was done with the program 0 (Jones et al., 1991).
To investigate the molecular mechanism by which NK1 induces Met dimerization, the crystal structure of mouse NK1 at a 2.4 Å resolution and a high resolution structure of human NK1 (1.8 Å) were determined for structural comparison.

[4] = target: T1, Met extracellular domain fragment …; experiment: AlphaScreen competition against biotin-NK1 binding to 6his-Met, 1 uM heparin
Description: as §1
(§2) In contrast to the Met dimerization activity, the Met binding activity of these NK1 mutants was little affected.

[5] = target: T1, Met extracellular domain fragment …; experiment: SPR, MET567 amine-coupled to a CM5 chip, ligand in flow
Excerpt: (§3) Briefly, a CM5 chip was coated with MET567 by amine coupling chemistry. Ligand was then flowed through the cell at various concentrations to allow calculation of the dissociation equilibrium (KD).
(§4) NK1 versions of the above mutants were expressed in the yeast P. pastoris and purified to homogeneity.

[6] = target: T1, Met extracellular domain fragment …; experiment: AlphaScreen, biotinylated NK1 and histidine-tagged Met, with against without heparin
Description: as §1
(§5) To determine the functional activity of the above purified proteins, the direct interactions of Met with the biotinylated NK1 were measured using AlphaScreen assays as illustrated in FIG. 1C. […] When NK1 interacts with Met, excitation of a laser beam at 680 nm causes the donor beads to emit single oxygen molecules to activate the fluorophores in the acceptor beads and a light signal is detected at 520-620 nm. […]

[7] = target: T1, Met extracellular domain fragment …; experiment: AlphaScreen, biotinylated NK1 on streptavidin donor beads and 6his-Met on nickel chelate acceptor beads, with heparin (sheet prints '+ 1 pM HEPARIN') [d]
Description: as §1, §5

[8] = target: T1, Met extracellular domain fragment …; experiment: SPR, MET567 amine-coupled to a CM5 chip, against wild type NK1
Excerpt: as §3, §4

[9] = target: T1, Met extracellular domain fragment …; experiment: AlphaScreen competition: unlabeled NK1 mutant against biotinylated NK1 binding to 6his-Met, with heparin [b]
Description: as §1, §2

B1: mouse NK1 (ligand)
chain: YAEGQKKRRNTLHEFKKSAKTTLTKEDPLLKIKTKKVNSADECANRCIRNRGFTFTCKAFVFDKSRKRCYWYPFNSMSSGVKKGFGHEFDLYENKDYIRNCIIGKGGSYKGTVSITKSGIKCQPWNSMIPHEHSFLPSSYRGKDLQENYCRNPRGEEGGPWCFTSNPEVRYEVCDIPQCSEV
notes: also called mouse NK1 (E. coli)
Q: For B1, which IC50 [1] is on record?
A: ~30 nM

Q: What about the “Met dimerization signal (AlphaScreen), 1 µM NK1 without heparin; fold label over the bar [b]” value [2] of the same binder?
A: 1 fold

Q: What about the “Met dimerization signal (AlphaScreen, 6his-Met on donor and acceptor beads), 1 µM NK1 with heparin; fold label over the bar [b]” value [2] of the same binder?
A: 46 fold

Q: Does B1 bind [3]?
A: binds

B2: human HGF NK1 (residues 28-209), expressed in E. coli (ligand)
chain: YAEGQRKRRNTIHEFKKSAKTTLIKIDPALKIKTKKVNTADQCANRCTRNKGLPFTCKAFVFDKARKQCLWFPFNSMSSGVKKEFGHEFDLYENKDYIRNCIIGKGRSYKGTVSITKSGIKCQPWSSMIPHEHSFLPSSYRGKDLQENYCRNPRGEEGGPWCFTSNPEVRYEVCDIPQCSEV
notes: Expressed as a 6xHis-thioredoxin fusion; also called human NK1; wild type NK1
Q: For B2, which IC50 [1] is on record?
A: ~100 nM

Q: And the “fold weaker affinity than mouse NK1 and the human R134G mutant” value [1]?
A: 3 fold

Q: And the “Met dimerization signal (AlphaScreen), 1 µM NK1 without heparin; fold label over the bar [b]” value [2]?
A: 1 fold

Q: What about the “Met dimerization signal (AlphaScreen, 6his-Met on donor and acceptor beads), 1 µM NK1 with heparin; fold label over the bar [b]” value [2] of the same binder?
A: 84 fold

Q: What about the IC50 [4] of the same binder?
A: 49 nM

B3: wild type NK1 expressed in P. pastoris (Example 7) (ligand)
chain: YAEGQRKRRNTIHEFKKSAKTTLIKIDPALKIKTKKVNTADQCANRCTRNKGLPFTCKAFVFDKARKQCLWFPFNSMSSGVKKEFGHEFDLYENKDYIRNCIIGKGRSYKGTVSITKSGIKCQPWSSMIPHEHSFLPSSYRGKDLQENYCRNPRGEEGGPWCFTSNPEVRYEVCDIPQCSEV
notes: Lietha 2001
Q: Which Kd [5] does the source give for B3 here?
A: 183 nM

B4: biotinylated human NK1 (ligand)
chain: YAEGQRKRRNTIHEFKKSAKTTLIKIDPALKIKTKKVNTADQCANRCTRNKGLPFTCKAFVFDKARKQCLWFPFNSMSSGVKKEFGHEFDLYENKDYIRNCIIGKGRSYKGTVSITKSGIKCQPWSSMIPHEHSFLPSSYRGKDLQENYCRNPRGEEGGPWCFTSNPEVRYEVCDIPQCSEV
modifications: biotin on the N-terminal biotin acceptor peptide (coexpressed BirA)
notes: Made from the His6-thioredoxin-NK1 vector, digested with thrombin, purified on monomeric avidin; also called biotin-NK1; biotinylated NK1; not shown: 20 amino acid biotin acceptor peptide from the pDW464 plasmid (Duffy et al., 1998)
Q: With B4 as the binder, how does the “fold increase of the NK1-Met binding signal on addition of heparin” value [6] read?
A: > 200 fold

Q: And the “fold label beside the bar of NK1+MET with heparin (NK1-MET binding signal)” value [7]?
A: 265 fold

B5: NK1 double mutant LF (D123A:Y124A), P. pastoris (ligand)
chain: YAEGQRKRRNTIHEFKKSAKTTLIKIDPALKIKTKKVNTADQCANRCTRNKGLPFTCKAFVFDKARKQCLWFPFNSMSSGVKKEFGHEFDLYENKAAIRNCIIGKGRSYKGTVSITKSGIKCQPWSSMIPHEHSFLPSSYRGKDLQENYCRNPRGEEGGPWCFTSNPEVRYEVCDIPQCSEV
Q: B5 was tested. Which “fold reduced MET binding affinity” value [8] did it give?
A: > 100 fold

B6: NK1 double mutant LG (D123A:N127A), P. pastoris (ligand)
chain: YAEGQRKRRNTIHEFKKSAKTTLIKIDPALKIKTKKVNTADQCANRCTRNKGLPFTCKAFVFDKARKQCLWFPFNSMSSGVKKEFGHEFDLYENKAYIRACIIGKGRSYKGTVSITKSGIKCQPWSSMIPHEHSFLPSSYRGKDLQENYCRNPRGEEGGPWCFTSNPEVRYEVCDIPQCSEV
Q: B6 was tested. Which “fold reduced MET binding affinity” value [8] did it give?
A: > 100 fold

B7: human NK1 mutant R134G (ligand)
chain: YAEGQRKRRNTIHEFKKSAKTTLIKIDPALKIKTKKVNTADQCANRCTRNKGLPFTCKAFVFDKARKQCLWFPFNSMSSGVKKEFGHEFDLYENKDYIRNCIIGKGGSYKGTVSITKSGIKCQPWSSMIPHEHSFLPSSYRGKDLQENYCRNPRGEEGGPWCFTSNPEVRYEVCDIPQCSEV
notes: Positions count on wild type NK1; also called human R134G mutant; human R134G NK1
Q: Which IC50 [1] does the source give for B7 here?
A: ~30 nM

Q: What about the “Met dimerization signal (AlphaScreen), 1 µM NK1 without heparin; fold label over the bar [b]” value [2] of the same binder?
A: 1 fold

Q: What about the “Met dimerization signal (AlphaScreen, 6his-Met on donor and acceptor beads), 1 µM NK1 with heparin; fold label over the bar [b]” value [2] of the same binder?
A: 68 fold

B8: NK1 linker mutant LC (Y124A), P. pastoris (ligand)
chain: YAEGQRKRRNTIHEFKKSAKTTLIKIDPALKIKTKKVNTADQCANRCTRNKGLPFTCKAFVFDKARKQCLWFPFNSMSSGVKKEFGHEFDLYENKDAIRNCIIGKGRSYKGTVSITKSGIKCQPWSSMIPHEHSFLPSSYRGKDLQENYCRNPRGEEGGPWCFTSNPEVRYEVCDIPQCSEV
Q: How did the Kd [5] turn out when B8 was run?
A: 149 nM

B9: human NK1 mutant K85A in the R134G background (ligand)
chain: YAEGQRKRRNTIHEFKKSAKTTLIKIDPALKIKTKKVNTADQCANRCTRNKGLPFTCAAFVFDKARKQCLWFPFNSMSSGVKKEFGHEFDLYENKDYIRNCIIGKGGSYKGTVSITKSGIKCQPWSSMIPHEHSFLPSSYRGKDLQENYCRNPRGEEGGPWCFTSNPEVRYEVCDIPQCSEV
notes: also called K85A NK1
Q: Which IC50 [4] does the source give for B9 here?
A: 32 nM

B10: human NK1 mutant K85A/N127A in the R134G background (ligand)
chain: YAEGQRKRRNTIHEFKKSAKTTLIKIDPALKIKTKKVNTADQCANRCTRNKGLPFTCAAFVFDKARKQCLWFPFNSMSSGVKKEFGHEFDLYENKDYIRACIIGKGGSYKGTVSITKSGIKCQPWSSMIPHEHSFLPSSYRGKDLQENYCRNPRGEEGGPWCFTSNPEVRYEVCDIPQCSEV
notes: made in the R134G background
Q: For B10, which IC50 [9] is on record?
A: 97 nM

B11: human NK1 mutant K85A/D123A in the R134G background (ligand)
chain: YAEGQRKRRNTIHEFKKSAKTTLIKIDPALKIKTKKVNTADQCANRCTRNKGLPFTCAAFVFDKARKQCLWFPFNSMSSGVKKEFGHEFDLYENKAYIRNCIIGKGGSYKGTVSITKSGIKCQPWSSMIPHEHSFLPSSYRGKDLQENYCRNPRGEEGGPWCFTSNPEVRYEVCDIPQCSEV
notes: made in the R134G background
Q: B11 was tested. Which IC50 [9] did it give?
A: 75 nM

B12: NK1 K1 mutant K1D (V140A:I142A), P. pastoris (ligand)
chain: YAEGQRKRRNTIHEFKKSAKTTLIKIDPALKIKTKKVNTADQCANRCTRNKGLPFTCKAFVFDKARKQCLWFPFNSMSSGVKKEFGHEFDLYENKDYIRNCIIGKGRSYKGTASATKSGIKCQPWSSMIPHEHSFLPSSYRGKDLQENYCRNPRGEEGGPWCFTSNPEVRYEVCDIPQCSEV
Q: B12 was tested. Which Kd [5] did it give?
A: 160 nM

B13: human NK1 mutant Y124A in the R134G background (ligand)
chain: YAEGQRKRRNTIHEFKKSAKTTLIKIDPALKIKTKKVNTADQCANRCTRNKGLPFTCKAFVFDKARKQCLWFPFNSMSSGVKKEFGHEFDLYENKDAIRNCIIGKGGSYKGTVSITKSGIKCQPWSSMIPHEHSFLPSSYRGKDLQENYCRNPRGEEGGPWCFTSNPEVRYEVCDIPQCSEV
notes: also called Y124A NK1; Y124A mutant
Q: For B13, which IC50 [4] is on record?
A: 39 nM

B14: NK1 linker mutant LE (N127A), P. pastoris (ligand)
chain: YAEGQRKRRNTIHEFKKSAKTTLIKIDPALKIKTKKVNTADQCANRCTRNKGLPFTCKAFVFDKARKQCLWFPFNSMSSGVKKEFGHEFDLYENKDYIRACIIGKGRSYKGTVSITKSGIKCQPWSSMIPHEHSFLPSSYRGKDLQENYCRNPRGEEGGPWCFTSNPEVRYEVCDIPQCSEV
Q: How did the Kd [5] turn out when B14 was run?
A: 83 nM
